Laboratory results taken from patent publication US20240392262A1, “TRANSPOSASE AND USES THEREOF” (Poseida Therapeutics, Inc., published 2024).
Where a chain is given by its changes, count along the chain named.

How the values were obtained:
Conditions in all cases: tags: 3xFlag, SV40 NLS
PAH3 Right TAL-PBx = biological target: T1, PAH3 Right TAL-PBx (synthetic construct); assay: cell_activity; right only
T1 chain: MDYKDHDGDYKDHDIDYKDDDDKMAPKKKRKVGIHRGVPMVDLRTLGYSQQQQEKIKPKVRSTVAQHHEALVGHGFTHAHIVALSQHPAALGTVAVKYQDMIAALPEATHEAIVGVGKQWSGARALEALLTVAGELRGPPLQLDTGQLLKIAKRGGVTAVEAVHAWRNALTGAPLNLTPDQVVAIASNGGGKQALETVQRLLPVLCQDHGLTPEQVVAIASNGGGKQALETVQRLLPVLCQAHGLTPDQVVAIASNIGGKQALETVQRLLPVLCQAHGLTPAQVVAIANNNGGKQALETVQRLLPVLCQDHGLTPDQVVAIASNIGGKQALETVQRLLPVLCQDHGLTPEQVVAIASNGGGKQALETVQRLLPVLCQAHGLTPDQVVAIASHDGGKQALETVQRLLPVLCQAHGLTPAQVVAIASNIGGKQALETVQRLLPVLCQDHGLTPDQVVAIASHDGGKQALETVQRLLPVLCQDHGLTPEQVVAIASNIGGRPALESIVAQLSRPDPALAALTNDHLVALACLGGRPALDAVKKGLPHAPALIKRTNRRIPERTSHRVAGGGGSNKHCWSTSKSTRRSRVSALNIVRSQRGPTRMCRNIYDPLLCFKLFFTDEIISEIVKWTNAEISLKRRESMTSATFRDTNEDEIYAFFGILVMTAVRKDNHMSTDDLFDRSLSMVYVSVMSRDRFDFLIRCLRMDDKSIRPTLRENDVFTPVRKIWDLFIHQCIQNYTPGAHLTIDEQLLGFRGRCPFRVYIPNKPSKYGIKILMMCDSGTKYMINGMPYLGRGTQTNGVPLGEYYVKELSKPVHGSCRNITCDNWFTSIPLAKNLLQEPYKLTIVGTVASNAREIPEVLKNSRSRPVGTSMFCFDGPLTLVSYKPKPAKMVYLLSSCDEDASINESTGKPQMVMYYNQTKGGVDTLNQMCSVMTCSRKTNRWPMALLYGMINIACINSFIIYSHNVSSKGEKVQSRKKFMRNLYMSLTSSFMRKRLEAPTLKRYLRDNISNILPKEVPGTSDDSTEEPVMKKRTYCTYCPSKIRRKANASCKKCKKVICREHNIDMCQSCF

PAH3 Left TAL-PBx = biological target: T2, PAH3 Left TAL-PBx (synthetic construct); assay: cell_activity; left only
T2 chain: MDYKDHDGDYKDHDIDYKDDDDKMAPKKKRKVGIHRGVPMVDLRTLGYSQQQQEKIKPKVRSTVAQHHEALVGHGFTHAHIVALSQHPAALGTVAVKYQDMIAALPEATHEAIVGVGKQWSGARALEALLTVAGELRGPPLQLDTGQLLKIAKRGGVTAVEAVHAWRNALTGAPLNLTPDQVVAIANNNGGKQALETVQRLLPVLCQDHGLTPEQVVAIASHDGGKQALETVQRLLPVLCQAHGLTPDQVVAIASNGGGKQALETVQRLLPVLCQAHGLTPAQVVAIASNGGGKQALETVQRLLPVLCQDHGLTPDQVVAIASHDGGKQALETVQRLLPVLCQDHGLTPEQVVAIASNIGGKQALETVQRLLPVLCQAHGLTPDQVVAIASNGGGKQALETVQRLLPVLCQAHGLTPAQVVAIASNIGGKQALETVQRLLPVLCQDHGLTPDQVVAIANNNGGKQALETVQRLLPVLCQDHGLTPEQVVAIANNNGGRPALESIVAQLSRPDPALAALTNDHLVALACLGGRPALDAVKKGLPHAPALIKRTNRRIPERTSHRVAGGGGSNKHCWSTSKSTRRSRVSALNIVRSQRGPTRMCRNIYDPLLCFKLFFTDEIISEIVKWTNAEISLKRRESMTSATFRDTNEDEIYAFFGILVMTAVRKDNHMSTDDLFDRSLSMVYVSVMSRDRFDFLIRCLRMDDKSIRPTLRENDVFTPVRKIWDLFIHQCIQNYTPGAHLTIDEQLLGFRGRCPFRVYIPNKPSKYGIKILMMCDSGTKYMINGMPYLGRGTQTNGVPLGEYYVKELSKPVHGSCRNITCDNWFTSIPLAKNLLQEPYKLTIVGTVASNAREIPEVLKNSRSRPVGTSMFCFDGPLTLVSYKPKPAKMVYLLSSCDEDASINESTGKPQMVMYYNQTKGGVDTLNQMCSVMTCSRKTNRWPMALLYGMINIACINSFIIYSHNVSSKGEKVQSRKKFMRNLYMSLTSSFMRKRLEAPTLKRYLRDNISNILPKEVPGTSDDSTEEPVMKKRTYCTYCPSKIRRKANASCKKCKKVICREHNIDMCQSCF

PAH2 Right TAL-PBx = biological target: T3, PAH2 Right TAL-PBx (synthetic construct); assay: cell_activity; right only
T3 chain: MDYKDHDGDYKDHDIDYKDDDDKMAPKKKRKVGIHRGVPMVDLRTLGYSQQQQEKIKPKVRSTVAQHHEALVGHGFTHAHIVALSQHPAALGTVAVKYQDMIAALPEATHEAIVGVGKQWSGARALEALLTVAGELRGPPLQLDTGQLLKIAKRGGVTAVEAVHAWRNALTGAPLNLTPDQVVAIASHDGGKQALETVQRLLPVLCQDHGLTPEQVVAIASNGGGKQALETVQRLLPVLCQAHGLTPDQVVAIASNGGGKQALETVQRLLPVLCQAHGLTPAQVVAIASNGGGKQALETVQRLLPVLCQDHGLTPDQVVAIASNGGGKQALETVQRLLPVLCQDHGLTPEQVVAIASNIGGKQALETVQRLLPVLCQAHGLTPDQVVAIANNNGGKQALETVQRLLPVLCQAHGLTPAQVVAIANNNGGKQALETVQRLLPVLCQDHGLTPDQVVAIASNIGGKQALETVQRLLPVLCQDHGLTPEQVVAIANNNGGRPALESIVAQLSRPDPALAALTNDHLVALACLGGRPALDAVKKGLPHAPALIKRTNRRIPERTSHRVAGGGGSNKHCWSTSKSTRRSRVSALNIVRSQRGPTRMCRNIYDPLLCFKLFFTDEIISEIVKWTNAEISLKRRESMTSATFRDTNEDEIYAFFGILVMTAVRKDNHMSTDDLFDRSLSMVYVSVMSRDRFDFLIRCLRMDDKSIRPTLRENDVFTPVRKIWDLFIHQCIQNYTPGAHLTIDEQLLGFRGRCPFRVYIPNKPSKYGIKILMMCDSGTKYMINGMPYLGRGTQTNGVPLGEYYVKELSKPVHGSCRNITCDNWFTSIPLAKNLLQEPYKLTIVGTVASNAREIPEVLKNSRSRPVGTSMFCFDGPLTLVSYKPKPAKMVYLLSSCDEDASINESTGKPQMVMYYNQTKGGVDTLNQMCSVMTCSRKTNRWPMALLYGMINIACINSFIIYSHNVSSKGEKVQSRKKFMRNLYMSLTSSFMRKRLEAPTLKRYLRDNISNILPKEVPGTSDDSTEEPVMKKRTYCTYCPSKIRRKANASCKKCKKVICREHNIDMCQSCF

PAH2 Left TAL-PBx = biological target: T4, PAH2 Left TAL-PBx (synthetic construct); assay: cell_activity; left only
T4 chain: T1 chain with N222H, G223D, I325G, H392N, D393G, S425N, I427N, H460N, D461G, I495G

B1: PAH3 target (dsDNA)
DNA 1: TGCTTCATAGGGTAGTTCTAAAGATTAAATCACTTAATGCATGTGATCTAAA
DNA 2: TTTAGATCACATGCATTAAGTGATTTAATCTTTAGAACTACCCTATGAAGCA
PAH3 Right TAL-PBx
  activity: 5.7 % GFP+
PAH3 Left TAL-PBx
  activity: 6.8 % GFP+

B2: PAH2 target (dsDNA)
DNA 1: TTCAGTTTGTTATATATGTGTCTATTAAGTTAGATTGTGAGCTCCTAAAAGA
DNA 2: TCTTTTAGGAGCTCACAATCTAACTTAATAGACACATATATAACAAACTGAA
PAH2 Right TAL-PBx
  activity: 7 % GFP+
PAH2 Left TAL-PBx
  activity: 8.8 % GFP+
